Here are results for one molecule from doi:10.1101/590430 (bioRxiv, 2019).

The target of the assay is P. luminescens TcdA1 (TcA) (P. luminescens, UniProt Q9RN43 1-2516). Kind of assay: cryo-EM structure.

B1: TcdB2 (TcB), as the TcB part of the TcdB2-TccC3 fusion protein (natural protein)
chain: MQNSQDFSITELSLPKGGGAITGMGEALTPTGPDGMAALSLPLPISAGRGYAPAFTLNYNSGAGNSPFGLGWDCNVMTIRRRTHFGVPHYDETDTFLGPEGEVLVVADQPRDESTLQGINLGATFTVTGYRSRLESHFSRLEYWQPKTTGKTDFWLIYSPDGQVHLLGKSPQARISNPSQTTQTAQWLLEASVSSRGEQIYYQYRAEDDTGCEADEITHHLQATAQRYLHIVYYGNRTASETLPGLDGSAPSQADWLFYLVFDYGERSNNLKTPPAFSTTGSWLCRQDRFSRYEYGFEIRTRRLCRQVLMYHHLQALDSKITEHNGPTLVSRLILNYDESAIASTLVFVRRVGHEQDGNVVTLPPLELAYQDFSPRHHAHWQPMDVLANFNAIQRWQLVDLKGEGLPGLLYQDKGAWWYRSAQRLGEIGSDAVTWEKMQPLSVIPSLQSNASLVDINGDGQLDWVITGPGLRGYHSQRPDGSWTRFTPLNALPVEYTHPRAQLADLMGAGLSDLVLIGPKSVRLYANTRDGFAKGKDVVQSGDITLPVPGADPRKLVAFSDVLGSGQAHLVEVSATKVTCWPNLGRGRFGQPITLPGFSQPATEFNPAQVYLADLDGSGPTDLIYVHTNRLDIFLNKSGNGFAEPVTLRFPEGLRFDHTCQLQMADVQGLGVASLILSVPHMSPHHWRCDLTNMKPWLLNEMNNNMGVHHTLRYRSSSQFWLDEKAAALTTGQTPVCYLPFPIHTLWQTETEDEISGNKLVTTLRYARGAWDGREREFRGFGYVEQTDSHQLAQGNAPERTPPALTKNWYATGLPVIDNALSTEYWRDDQAFAGFSPRFTTWQDNKDVPLTPEDDNSRYWFNRALKGQLLRSELYGLDDSTNKHVPYTVTEFRSQVRRLQHTDSRYPVLWSSVVESRNYHYERIASDPQCSQNITLSSDRFGQPLKQLSVQYPRRQQPAINLYPDTLPDKLLANSYDDQQRQLRLTYQQSSWHHLTNNTVRVLGLPDSTRSDIFTYGAENVPAGGLNLELLSDKNSLIADDKPREYLGQQKTAYTDGQNTTPLQTPTRQALIAFTETTVFNQSTLSAFNGSIPSDKLSTTLEQAGYQQTNYLFPRTGEDKVWVAHHGYTDYGTAAQFWRPQKQSNTQLTGKITLIWDANYCVVVQTRDAAGLTTSAKYDWRFLTPVQLTDINDNQHLITLDALGRPITLRFWGTENGKMTGYSSPEKASFSPPSDVNAAIELKKPLPVAQCQVYAPESWMPVLSQKTFNRLAEQDWQKLYNARIITEDGRICTLAYRRWVQSQKAIPQLISLLNNGPRLPPHSLTLTTDRYDHDPEQQIRQQVVFSDGFGRLLQAAARHEAGMARQRNEDGSLIINVQHTENRWAVTGRTEYDNKGQPIRTYQPYFLNDWRYVSNDSARQEKEAYADTHVYDPIGREIKVITAKGWFRRTLFTPWFTVNEDENDTAAEVKKVKM
With B1, the binding result is “binds”.
